According to the supplement of paper PMC5998384:

Legend:
[1] = test system: HeLa Kyoto; assay: solubility in G1/S (NP-40 vs SDS abundance) (log2 ratio); higher = more soluble; settings: cell cycle stage: G1/S
[2] = test system: HeLa Kyoto; assay: melting temperature (median over replicates), in situ; higher = more thermally stable
[3] = test system: HeLa Kyoto; assay: solubility change mitosis vs G1/S (difference of NP-40 vs SDS log2 ratios) (log2 ratio difference); higher = more soluble in mitosis
[4] = test system: HeLa Kyoto; assay: thermal stability score vs G1/S (z-score of summed log2 fold changes over temperatures); higher = more thermally stable than in G1/S
[5] = cell cycle stage: early G1 (4.5 h after nocodazole release)
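Throughout, for melting temperature (median over replicates), in situ: HeLa Kyoto cells synchronized by double thymidine or nocodazole block, proteins quantified by TMT10plex mass spectrometry, three independent biological replicates.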
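Throughout, for solubility change mitosis vs G1/S (difference of NP-40 vs SDS log2 ratios): synchronized HeLa Kyoto cells (double thymidine block for G1/S, nocodazole release for mitosis), protein amounts in NP-40 versus SDS lysates quantified by mass spectrometry, three biological replicates.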
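Throughout, for solubility in G1/S (NP-40 vs SDS abundance): HeLa Kyoto cells arrested at G1/S by double thymidine block, proteins quantified by TMT10plex mass spectrometry in mild NP-40 versus SDS extracts, three biological replicates.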
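Throughout, for thermal stability score vs G1/S (z-score of summed log2 fold changes over temperatures): synchronized HeLa Kyoto cells, proteins quantified by TMT10plex mass spectrometry, three biological replicates, mitosis taken 0.5 h after nocodazole release, G1/S directly after double thymidine block.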

GFM1, sequence (chain, as listed by the source): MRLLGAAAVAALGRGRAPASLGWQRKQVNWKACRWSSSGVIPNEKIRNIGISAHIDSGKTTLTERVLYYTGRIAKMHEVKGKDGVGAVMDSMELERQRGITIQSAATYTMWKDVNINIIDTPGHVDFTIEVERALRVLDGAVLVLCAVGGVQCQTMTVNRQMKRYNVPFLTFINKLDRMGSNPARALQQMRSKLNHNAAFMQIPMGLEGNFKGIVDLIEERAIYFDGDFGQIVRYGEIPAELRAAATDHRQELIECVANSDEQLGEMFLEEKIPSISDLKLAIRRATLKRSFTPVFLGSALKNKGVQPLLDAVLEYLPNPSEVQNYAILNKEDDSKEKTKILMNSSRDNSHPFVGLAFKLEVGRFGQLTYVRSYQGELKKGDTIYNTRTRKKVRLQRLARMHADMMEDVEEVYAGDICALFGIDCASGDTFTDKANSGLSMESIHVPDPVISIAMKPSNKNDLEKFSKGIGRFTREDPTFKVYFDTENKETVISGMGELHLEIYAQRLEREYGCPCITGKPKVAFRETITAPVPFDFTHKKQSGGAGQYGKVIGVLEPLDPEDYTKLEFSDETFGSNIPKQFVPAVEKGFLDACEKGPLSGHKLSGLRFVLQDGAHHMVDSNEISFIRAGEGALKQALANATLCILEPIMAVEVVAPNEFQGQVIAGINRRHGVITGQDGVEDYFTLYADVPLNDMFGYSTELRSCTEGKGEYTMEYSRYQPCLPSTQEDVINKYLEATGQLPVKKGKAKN
HSPA9, sequence (chain, as listed by the source): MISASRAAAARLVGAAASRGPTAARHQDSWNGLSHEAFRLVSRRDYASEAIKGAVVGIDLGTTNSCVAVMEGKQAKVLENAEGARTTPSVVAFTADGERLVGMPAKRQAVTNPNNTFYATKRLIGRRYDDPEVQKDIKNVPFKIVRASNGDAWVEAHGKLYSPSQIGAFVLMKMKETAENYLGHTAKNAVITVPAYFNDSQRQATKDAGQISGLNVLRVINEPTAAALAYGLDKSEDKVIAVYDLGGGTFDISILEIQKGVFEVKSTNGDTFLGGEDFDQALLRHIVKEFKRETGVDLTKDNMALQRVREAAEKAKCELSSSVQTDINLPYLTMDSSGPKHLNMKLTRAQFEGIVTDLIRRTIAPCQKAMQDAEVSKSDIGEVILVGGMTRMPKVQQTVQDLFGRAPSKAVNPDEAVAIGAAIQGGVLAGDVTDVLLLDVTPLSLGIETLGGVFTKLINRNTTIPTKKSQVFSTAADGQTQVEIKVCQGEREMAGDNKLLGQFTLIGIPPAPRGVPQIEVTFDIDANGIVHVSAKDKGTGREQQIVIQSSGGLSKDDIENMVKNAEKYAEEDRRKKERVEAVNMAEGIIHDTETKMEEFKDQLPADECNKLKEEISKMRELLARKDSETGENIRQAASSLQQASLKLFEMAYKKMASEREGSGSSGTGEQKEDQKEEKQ
HSPA2, sequence (chain, as listed by the source): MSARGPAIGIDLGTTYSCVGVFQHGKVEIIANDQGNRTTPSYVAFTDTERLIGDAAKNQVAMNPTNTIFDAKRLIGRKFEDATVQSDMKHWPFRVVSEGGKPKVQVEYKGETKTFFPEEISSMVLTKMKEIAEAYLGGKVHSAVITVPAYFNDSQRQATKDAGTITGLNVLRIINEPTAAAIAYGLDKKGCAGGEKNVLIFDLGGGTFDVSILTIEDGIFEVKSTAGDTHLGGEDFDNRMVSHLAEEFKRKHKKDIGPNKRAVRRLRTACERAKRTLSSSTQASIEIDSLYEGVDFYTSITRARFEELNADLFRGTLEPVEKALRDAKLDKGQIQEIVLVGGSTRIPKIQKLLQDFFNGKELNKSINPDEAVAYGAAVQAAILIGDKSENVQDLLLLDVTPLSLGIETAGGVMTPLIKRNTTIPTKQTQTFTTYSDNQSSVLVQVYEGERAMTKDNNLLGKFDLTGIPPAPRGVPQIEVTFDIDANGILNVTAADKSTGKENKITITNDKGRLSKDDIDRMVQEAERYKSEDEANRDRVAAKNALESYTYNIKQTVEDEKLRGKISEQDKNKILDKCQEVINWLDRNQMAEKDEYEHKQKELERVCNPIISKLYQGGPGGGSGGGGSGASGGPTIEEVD
HACL1, sequence (chain, as listed by the source): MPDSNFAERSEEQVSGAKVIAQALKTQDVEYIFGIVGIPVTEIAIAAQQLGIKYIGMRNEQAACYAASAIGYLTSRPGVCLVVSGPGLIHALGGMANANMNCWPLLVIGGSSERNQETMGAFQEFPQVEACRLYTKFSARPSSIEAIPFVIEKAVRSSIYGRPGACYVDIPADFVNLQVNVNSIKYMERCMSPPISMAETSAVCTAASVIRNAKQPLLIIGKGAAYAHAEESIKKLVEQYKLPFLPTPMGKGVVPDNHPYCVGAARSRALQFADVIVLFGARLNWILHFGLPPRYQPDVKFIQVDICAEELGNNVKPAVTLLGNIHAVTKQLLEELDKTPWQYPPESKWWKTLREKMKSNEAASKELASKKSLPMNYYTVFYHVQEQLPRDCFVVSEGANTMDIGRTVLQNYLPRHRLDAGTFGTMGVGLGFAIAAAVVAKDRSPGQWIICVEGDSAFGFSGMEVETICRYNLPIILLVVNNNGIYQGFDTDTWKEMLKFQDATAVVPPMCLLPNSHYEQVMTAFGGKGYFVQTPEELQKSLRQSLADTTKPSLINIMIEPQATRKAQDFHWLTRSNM
FXR2, sequence (chain, as listed by the source): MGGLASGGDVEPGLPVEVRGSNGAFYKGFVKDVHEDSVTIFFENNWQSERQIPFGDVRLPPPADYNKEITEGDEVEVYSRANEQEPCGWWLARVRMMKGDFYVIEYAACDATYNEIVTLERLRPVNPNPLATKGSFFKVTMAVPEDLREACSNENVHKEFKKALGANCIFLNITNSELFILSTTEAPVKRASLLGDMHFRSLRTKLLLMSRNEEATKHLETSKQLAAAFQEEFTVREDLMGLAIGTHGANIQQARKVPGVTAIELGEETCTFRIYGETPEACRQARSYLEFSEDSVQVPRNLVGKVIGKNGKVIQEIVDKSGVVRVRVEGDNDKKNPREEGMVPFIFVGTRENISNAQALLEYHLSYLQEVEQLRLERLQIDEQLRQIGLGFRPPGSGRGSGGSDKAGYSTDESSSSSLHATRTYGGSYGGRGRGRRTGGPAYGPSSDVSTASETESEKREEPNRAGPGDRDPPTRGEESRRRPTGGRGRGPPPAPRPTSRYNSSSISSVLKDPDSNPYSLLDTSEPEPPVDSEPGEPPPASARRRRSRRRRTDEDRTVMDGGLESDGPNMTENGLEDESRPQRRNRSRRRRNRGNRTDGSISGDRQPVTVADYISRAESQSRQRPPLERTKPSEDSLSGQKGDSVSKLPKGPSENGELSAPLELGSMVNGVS
EZH2, sequence (chain, as listed by the source): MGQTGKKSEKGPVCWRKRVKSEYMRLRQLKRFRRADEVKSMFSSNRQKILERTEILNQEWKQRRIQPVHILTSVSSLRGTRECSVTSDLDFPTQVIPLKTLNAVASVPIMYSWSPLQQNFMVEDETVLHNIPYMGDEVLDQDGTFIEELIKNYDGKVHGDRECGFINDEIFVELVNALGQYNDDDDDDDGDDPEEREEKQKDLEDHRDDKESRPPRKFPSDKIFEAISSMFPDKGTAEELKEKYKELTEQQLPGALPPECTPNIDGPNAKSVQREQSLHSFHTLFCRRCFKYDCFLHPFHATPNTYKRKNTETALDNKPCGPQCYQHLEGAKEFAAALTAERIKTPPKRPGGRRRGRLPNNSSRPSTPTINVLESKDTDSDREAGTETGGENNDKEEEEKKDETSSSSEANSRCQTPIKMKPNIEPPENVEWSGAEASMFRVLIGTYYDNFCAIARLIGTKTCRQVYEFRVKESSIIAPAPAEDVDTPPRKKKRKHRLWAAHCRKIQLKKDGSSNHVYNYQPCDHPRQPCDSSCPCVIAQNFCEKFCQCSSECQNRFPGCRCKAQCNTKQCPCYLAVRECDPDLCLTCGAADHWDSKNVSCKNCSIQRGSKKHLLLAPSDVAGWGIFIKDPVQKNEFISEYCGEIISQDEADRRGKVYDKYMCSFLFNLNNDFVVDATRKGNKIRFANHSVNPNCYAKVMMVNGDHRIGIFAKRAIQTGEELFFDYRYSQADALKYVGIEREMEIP
ITCH, sequence (chain, as listed by the source): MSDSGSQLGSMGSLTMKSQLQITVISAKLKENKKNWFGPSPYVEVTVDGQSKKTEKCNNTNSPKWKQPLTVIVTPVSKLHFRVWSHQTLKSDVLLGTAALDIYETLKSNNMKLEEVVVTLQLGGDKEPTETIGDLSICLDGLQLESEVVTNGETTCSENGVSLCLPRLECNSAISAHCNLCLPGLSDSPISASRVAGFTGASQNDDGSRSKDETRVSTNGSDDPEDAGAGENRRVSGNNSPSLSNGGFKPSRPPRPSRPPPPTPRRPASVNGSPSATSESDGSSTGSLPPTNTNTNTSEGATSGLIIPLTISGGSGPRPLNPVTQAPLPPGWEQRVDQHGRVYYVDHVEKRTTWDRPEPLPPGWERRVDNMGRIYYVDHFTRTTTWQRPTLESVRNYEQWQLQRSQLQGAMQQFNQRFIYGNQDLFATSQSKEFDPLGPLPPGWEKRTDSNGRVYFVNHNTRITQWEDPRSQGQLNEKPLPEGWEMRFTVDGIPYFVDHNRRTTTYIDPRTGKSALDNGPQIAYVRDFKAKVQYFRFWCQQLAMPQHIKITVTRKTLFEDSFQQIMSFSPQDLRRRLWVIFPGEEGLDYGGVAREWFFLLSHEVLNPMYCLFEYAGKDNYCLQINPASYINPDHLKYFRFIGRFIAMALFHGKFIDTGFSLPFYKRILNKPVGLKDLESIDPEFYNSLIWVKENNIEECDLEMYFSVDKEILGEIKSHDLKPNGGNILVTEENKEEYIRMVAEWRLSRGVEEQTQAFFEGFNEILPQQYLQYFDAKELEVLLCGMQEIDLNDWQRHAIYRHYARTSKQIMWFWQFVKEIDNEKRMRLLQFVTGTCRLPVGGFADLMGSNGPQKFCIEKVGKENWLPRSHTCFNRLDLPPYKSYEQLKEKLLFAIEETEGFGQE

Substance | solubility in G1/S (log2) [1] | melting temperature ([2]; cell cycle stage: G1/S) | melting temperature ([2]; cell cycle stage: mitosis) | solubility change mitosis (log2) [3] | thermal stability score [4, 5] | thermal stability score ([4]; cell cycle stage: mitosis)
DOCK1 | -0.195 | 50.7 °C | 50 °C | -0.0711 | 0.388 | 0.518
DST | -0.363 | 49.1 °C | 49.2 °C | 0.045 | 0.147 | 1.16
EIF2AK4 | -0.218 | 50.8 °C | 50.3 °C | -0.0694 | 0.686 | 0.568
EP300 | -0.0947 | 50.8 °C | 51.6 °C | -0.0909 | -0.227 | 1.93
EZH2 | -0.621 | 49 °C | 49.9 °C | 0.156 | 2.26 | 4
FAM91A1 | -0.0537 | 51.9 °C | 51.3 °C | -0.101 | -0.197 | -1.55
FLAD1 | 0.272 | 51.8 °C | 51.6 °C | -0.111 | -0.00796 | -0.288
FLNB | -0.0724 | 51.8 °C | 51.3 °C | -0.0508 | -0.118 | 0.998
FXR2 | -1.13 | 52.6 °C | 51.7 °C | 0.38 | -1.1 | -0.108
GALK1 | 0.313 | 52.6 °C | 52.7 °C | -0.117 | 3.18 | 1.65
GALNT2 | -0.0412 | 51.6 °C | 52 °C | -0.0991 | 9.37 | 17.4
GEMIN5 | -0.199 | 49.4 °C | 49.7 °C | -0.155 | -0.261 | 1.19
GFM1 | 0.0415 | 50.3 °C | 50.5 °C | -0.108 | -0.899 | 0.337
HACL1 | -0.0836 | 56.6 °C | 56.1 °C | -0.168 | -1.09 | -0.922
HEATR1 | -1.01 | 48.4 °C | 49.2 °C | 0.265 | 1.16 | 2.97
HELZ | 0.00285 | 52.3 °C | 52.3 °C | -0.131 | -0.338 | -0.16
HERC1 | -0.169 | 51.7 °C | 51.3 °C | -0.126 | -0.377 | -0.404
HNRNPK | 0.317 | 49.7 °C | 49.9 °C | 0.0123 | -0.521 | 2.21
HSPA2 | 0.111 | 53.2 °C | 52.4 °C | -0.0491 | 0.118 | 1.01

Substance | solubility in G1/S (log2) [1] | melting temperature ([2]; cell cycle stage: G1/S) | melting temperature ([2]; cell cycle stage: mitosis) | solubility change mitosis (log2) [3] | thermal stability score [4, 5] | thermal stability score ([4]; cell cycle stage: mitosis)
HSPA9 | 0.447 | 53.1 °C | 52.8 °C | -0.0046 | 2.31 | -0.387
HTT | -0.145 | 50.6 °C | 50.7 °C | -0.0881 | -0.714 | -1.14
IDH3B | 0.298 | 54.2 °C | 53.5 °C | -0.00994 | -1.39 | -2
IMPDH1 | 0.0289 | 51.1 °C | 51.6 °C | -0.176 | 5.12 | 3.19
ITCH | -0.468 | 49.8 °C | 51.6 °C | 0.0566 | 0.594 | 0.999
ITPR1 | -0.349 | 49.8 °C | 50.2 °C | -0.0166 | 0.726 | 1.96
ITPR2 | -0.52 | 49.6 °C | 50.4 °C | 0.131 | -0.335 | 0.355
ITSN2 | -0.159 | 51.9 °C | 49.1 °C | -0.0144 | 0.178 | 0.129
KIAA0930 | -0.0317 | 52.6 °C | 52.3 °C | -0.03 | 0.34 | 0.505
KIDINS220 | -0.21 | 52.9 °C | 52 °C | 0.00102 | -0.795 | -1.61
LAMB1 | 0.0818 | 53.6 °C | 54.2 °C | -0.0866 | 3.04 | 4.45
LDLR | -0.34 | 56.6 °C | 56.6 °C | -0.00467 | -1.81 | -1.47
LMO7 | -1.14 | 51 °C | 51.1 °C | 0.694 | 3.45 | 3.47
MAAAAAAAAAAGAAGGRGSGPGRRRHLVPGAGGEAGEGAPGGAGDYGNGLESEELEPEELLLEPEPEPEPEEEPPRPRAPPGAPGPGPGSGAPGSQEEEEEPGLVEGDPGDGAIEDPELEAIKARVREMEEEAEKLKELQNEVEKQMNMSPPPGNAGPVIMSIEEKMEADARSIYVGNVDYGATAEELEAHFHGCGSVNRVTILCDKFSGHPKGFAYIEFSDKESVRTSLALDESLFRGRQIKVIPKRTNRPGISTTDRGFPRARYRARTTNYNSSRSRFYSGFNSRPRGRVYRGRARATSWYSPY [PABPN1] | 0.016 | 48.9 °C | 50.5 °C | 0.441 | 1.6 | 2.2
MAAAAAAGPSPGSGPGDSPEGPEGEAPERRRKAHGMLKLYYGLSEGEAAGRPAGPDPLDPTDLNGAHFDPEVYLDKLRRECPLAQLMDSETDMVRQIRALDSDMQTLVYENYNKFISATDTIRKMKNDFRKMEDEMDRLATNMAVITDFSARISATLQDRHERITKLAGVHALLRKLQFLFELPSRLTKCVELGAYGQAVRYQGRAQAVLQQYQHLPSFRAIQDDCQVITARLAQQLRQRFREGGSGAPEQAECVELLLALGEPAEELCEEFLAHARGRLEKELRNLEAELGPSPPAPDVLEFTDHGGSGFVGGLCQVAAAYQELFAAQGPAGAEKLAAFARQLGSRYFALVERRLAQEQGGGDNSLLVRALDRFHRRLRAPGALLAAAGLADAATEIVERVARERLGHHLQGLRAAFLGCLTDVRQALAAPRVAGKEGPGLAELLANVASSILSHIKASLAAVHLFTAKEVSFSNKPYFRGEFCSQGVREGLIVGFVHSMCQTAQSFCDSPGEKGGATPPALLLLLSRLCLDYETATISYILTLTDEQFLVQDQFPVTPVSTLCAEARETARRLLTHYVKVQGLVISQMLRKSVETRDWLSTLEPRNVRAVMKRVVEDTTAIDVQVGLLYEEGVRKAQSSDSSKRTFSVYSSSRQQGRYAPSYTPSAPMDTNLLSNIQKLFSERIDVFSPVEFNKVSVLTGIIKISLKTLLECVRLRTFGRFGLQQVQVDCHFLQLYLWRFVADEELVHLLLDEVVASAALRCPDPVPMEPSVVEVICERG [VPS51] | 0.0503 | 49.3 °C | 49.3 °C | -0.137 | 0.245 | 0.774
MAAAAAAVGPGAGGAGSAVPGGAGPCATVSVFPGARLLTIGDANGEIQRHAEQQALRLEVRAGPDSAGIALYSHEDVCVFKCSVSRETECSRVGKQSFIITLGCNSVLIQFATPNDFCSFYNILKTCRGHTLERSVFSERTEESSAVQYFQFYGYLSQQQNMMQDYVRTGTYQRAILQNHTDFKDKIVLDVGCGSGILSFFAAQAGARKIYAVEASTMAQHAEVLVKSNNLTDRIVVIPGKVEEVSLPEQVDIIISEPMGYMLFNERMLESYLHAKKYLKPSGNMFPTIGDVHLAPFTDEQLYMEQFTKANFWYQPSFHGVDLSALRGAAVDEYFRQPVVDTFDIRILMAKSVKYTVNFLEAKEGDLHRIEIPFKFHMLHSGLVHGLAFWFDVAFIGSIMTVWLSTAPTEPLTHWYQVRCLFQSPLFAKAGDTLSGTCLLIANKRQSYDISIVAQVDQTGSKSSNLLDLKNPFFRYTGTTPSPPPGSHYTSPSENMWNTGSTYNLSSGMAVAGMPTAYDLSSVIASGSSVGHNNLIPLANTGIVNHTHSRMGSIMSTGIVQGSSGAQGSGGGSTSAHYAVNSQFTMGGPAISMASPMSIPTNTMHYGS [CARM1] | -0.0215 | 56 °C | 56.3 °C | -0.216 | -1.1 | -1.42
MAAAAARVVLSSAARRRLWGFSESLLIRGAAGRSLYFGENRLRSTQAATQVVLNVPETRVTCLESGLRVASEDSGLSTCTVGLWIDAGSRYENEKNNGTAHFLEHMAFKGTKKRSQLDLELEIENMGAHLNAYTSREQTVYYAKAFSKDLPRAVEILADIIQNSTLGEAEIERERGVILREMQEVETNLQEVVFDYLHATAYQNTALGRTILGPTENIKSISRKDLVDYITTHYKGPRIVLAAAGGVSHDELLDLAKFHFGDSLCTHKGEIPALPPCKFTGSEIRVRDDKMPLAHLAIAVEAVGWAHPDTICLMVANTLIGNWDRSFGGGMNLSSKLAQLTCHGNLCHSFQSFNTSYTDTGLWGLYMVCESSTVADMLHVVQKEWMRLCTSVTESEVARARNLLKTNMLLQLDGSTPICEDIGRQMLCYNRRIPIPELEARIDAVNAETIREVCTKYIYNRSPAIAAVGPIKQLPDFKQIRSNMCWLRD [PMPCB] | 0.179 | 51.7 °C | 52.1 °C | -0.0473 | -0.694 | -1.33
VKORC1 | -0.134 |  |  | 0.136 | -0.761 | -1.55
